Measurements as given in the Human Domainome abundance scans (Beltran et al. 2025).
± gives the uncertainty stated by the source.

B1: Tudor domain-containing protein 3, residues 554 to 611; numbered along this chain, Q9H7E2 (parent)
chain: KMWKPGDECFALYWEDNKFYRAEVEALHSSGMTAVVKFIDYGNYEEVLLSNIKPIQTE

Variants of: B1
Experiment: abundance fitness (aPCA) (normalised: wild type 0, dead -1); higher = more abundant; growth selection in yeast, the domain comes from the species named
Details: Homo sapiens

Abundance fitness: each site, then its substitutions
R21: L -0.177 ± 0.058, P -0.206 ± 0.077, W -0.766 ± 0.093, A -0.289 ± 0.067, H -0.143 ± 0.089, Y -0.662 ± 0.11, G -0.978 ± 0.098, I -0.434 ± 0.13, S -0.622 ± 0.069, T -0.542 ± 0.094, C -0.826 ± 0.11, D -0.582 ± 0.14, N -0.678 ± 0.15, M -0.506 ± 0.096, V -0.508 ± 0.078, Q -0.13 ± 0.1
H28: P -0.001 ± 0.1, G 0.034 ± 0.055, S -0.042 ± 0.066, R -0.183 ± 0.054, E -0.159 ± 0.082, M -0.118 ± 0.076, D -0.144 ± 0.11, L -0.087 ± 0.062, T -0.065 ± 0.075, W -0.871 ± 0.095, Y -0.401 ± 0.11, N -0.006 ± 0.094, Q -0.088 ± 0.13, A 0.024 ± 0.075, C -0.098 ± 0.077, F -0.619 ± 0.14, I -0.508 ± 0.15
C9: H -0.817 ± 0.26, L -0.913 ± 0.086, N -0.82 ± 0.27, P -0.905 ± 0.12, S -0.942 ± 0.1, Q -0.93 ± 0.12, K -0.915 ± 0.17, I -0.975 ± 0.3, Y -0.802 ± 0.099, W -0.773 ± 0.095, T -1.04 ± 0.16, R -0.819 ± 0.083
K18: F -0.917 ± 0.26, T -0.087 ± 0.087, I -0.273 ± 0.12, A -0.126 ± 0.089, M -0.033 ± 0.084, N -0.228 ± 0.11, V -0.255 ± 0.069, P -0.949 ± 0.16, H -0.179 ± 0.12, S -0.254 ± 0.067, R -0.095 ± 0.056, W -0.736 ± 0.11, E -0.179 ± 0.087, L -0.254 ± 0.075, C -0.188 ± 0.08, Q -0.144 ± 0.086
L12: A -0.525 ± 0.083, Y -0.754 ± 0.2, P -0.394 ± 0.075, V -0.368 ± 0.071, R -0.124 ± 0.059, K 0.01 ± 0.12, T -0.861 ± 0.12, W -0.384 ± 0.083, S -0.725 ± 0.088, F -0.493 ± 0.15, N -0.486 ± 0.17, D -0.891 ± 0.19, G -0.782 ± 0.086, C -0.236 ± 0.13, H -0.552 ± 0.13, I -0.272 ± 0.14, Q -0.252 ± 0.09
D16: A -0.529 ± 0.08, P -0.602 ± 0.12, Y -0.691 ± 0.17, I -1.04 ± 0.26, T -0.377 ± 0.1, V -0.722 ± 0.099, Q -0.498 ± 0.12, C -0.961 ± 0.14, F -0.76 ± 0.25, R -0.308 ± 0.057, N -0.417 ± 0.15, M -0.754 ± 0.11, H -0.116 ± 0.14, K -0.366 ± 0.11, G -0.89 ± 0.077, L -0.588 ± 0.085
W14: Q 0.169 ± 0.099, A 0.173 ± 0.065, H 0.043 ± 0.15, Y -0.006 ± 0.12, E 0.011 ± 0.077, S 0.134 ± 0.075, F -0.136 ± 0.084, M 0.066 ± 0.1, L -0.034 ± 0.062, V -0.012 ± 0.057, I -0.131 ± 0.11, D 0.129 ± 0.1, P 0.041 ± 0.11, T 0.016 ± 0.075, N 0.139 ± 0.1, C 0.046 ± 0.078, K 0.166 ± 0.1, G 0.073 ± 0.054, R 0.071 ± 0.056
Y20: L -0.171 ± 0.059, S -0.59 ± 0.083, E -0.516 ± 0.09, K 0.072 ± 0.091, C -0.321 ± 0.12, A -0.228 ± 0.068, G -0.732 ± 0.072, D -1.01 ± 0.17, H 0.081 ± 0.12, P -0.918 ± 0.14, N -0.68 ± 0.18, I -0.347 ± 0.098, F -0.807 ± 0.17, W -0.305 ± 0.073, M -0.297 ± 0.097, T -0.871 ± 0.12
A26: G -0.068 ± 0.086, I -0.16 ± 0.16, R 0.049 ± 0.083, M -0.065 ± 0.14, Y -0.062 ± 0.21, L -0.041 ± 0.089, N -0.079 ± 0.16, C -0.063 ± 0.15, V -0.128 ± 0.11, F 0.101 ± 0.21, Q -0.322 ± 0.2, H -0.031 ± 0.21, S 0.106 ± 0.095, K 0.158 ± 0.17, D -0.165 ± 0.22, E 0.211 ± 0.17, W -0.195 ± 0.12, P -0.897 ± 0.2, T 0.109 ± 0.17
A22: K -1.03 ± 0.14, S -0.637 ± 0.087, V -0.845 ± 0.069, D -0.93 ± 0.13, M -0.908 ± 0.16, T -0.865 ± 0.14, P -0.976 ± 0.14, Y -0.844 ± 0.27, W -0.95 ± 0.12, H -0.936 ± 0.21, R -0.756 ± 0.076, E -1.04 ± 0.13, Q -0.955 ± 0.15, C -0.488 ± 0.12, I -0.923 ± 0.36, L -0.857 ± 0.093, F -0.977 ± 0.25, N -0.986 ± 0.3, G -0.351 ± 0.06
